Source: patent US20200407441A1 (I MAB BIOPHARMA US, published 2020)

Experiments:
[1] = molecular target: CD47 on human red blood cells (human) (UniProt Q08722); assay: flow cytometry on human RBCs, Donor 1
[2] = molecular target: CD47 on human red blood cells (human) (UniProt Q08722); assay: flow cytometry on human RBCs, Donor 2
[3] = molecular target: T1, recombinant human CD47-Fc fusion protein (Acrobiosystems) (human, UniProt Q08722 19-139); assay: blocking ELISA, CD47-Fc coated, blocked ligand SIRPa-His at 1 ug/mL, anti-His HRP
T1 construct: extracellular domain; also called recombinant CD47-Fc fusion protein; not shown: Fc

[4] = molecular target: T2, human CD47 on Raji cells (human, UniProt Q08722 19-323); assay: flow cytometry on Raji cells, APC anti-human Fc
T2 construct: whole, on cells; also called CD47+ Raji cells; CD47-bearing Raji cells
Procedure: (§1) Then, the cells were washed with PBS three times, followed by incubation with APC-labeled anti-human Fc specific antibody (Invitrogen) at 4° C. for 30 minutes. Binding was measured using a FACSCanto (Becton-Dickinson).

[5] = molecular target: T3, biotinylated human CD47-ECD protein (Acrobiosystems) (human, UniProt Q08722 19-139, biotinylated (site not stated)); assay: ELISA, biotinylated CD47 coated at 1 ug/mL, anti-human Fc HRP
T3 construct: extracellular domain; Bought reagent; also called biotinylated CD47 protein; monomeric CD47-ECD

[6] = molecular target: T4, Tag1-CD47 (Cisbio HTRF kit) (UniProt Q08722 19-139); assay: HTRF competition: blocks Tag1-CD47 / Tag2-SIRPα interaction (Cisbio)
T4 construct: Kit reagent
Procedure: (§2) The mixture was incubated at 25° C. for 15 minutes, and further incubated at 25° C. for 1 hour after conjugates pre-mixture was added. Then the plate sealer was removed and fluorescence data was read on a PerkinElmer Envision plate reader.

[7] = molecular target: CD47 on human platelets (human) (UniProt Q08722); assay: flow cytometry on human whole blood, gated on CD61 positive platelets, antibody at 10 ug/mL
[8] = molecular target: T2, human CD47 on Raji cells; assay: flow cytometry on Raji cells
Procedure: as §1

[9] = molecular target: T5, CD47 (form not stated) (UniProt Q08722 19-139, limits assumed); assay: BiaCore (SPR); format not stated
[10] = molecular target: T6, recombinant human CD47/mouse Fc fusion protein (Acrobiosystems) (human, UniProt Q08722 19-139); assay: ELISA on recombinant CD47-ECD (FIG. 2b, dimeric CD47-ECD)
T6 construct: extracellular domain; Bought reagent; also called dimeric CD47-ECD; not shown: Mouse Fc

[11] = molecular target: T6, recombinant human CD47/mouse Fc fusion …; assay: ELISA, CD47/mouse Fc coated at 1 ug/ml, anti-human Fc HRP
Procedure: CD47/mouse Fc fusion protein (Acrobiosystems) was coated at 1 ug/ml in PBS onto microtiter plates for 2 hours at RT. After coating of antigen the wells were blocked with PBS/0.05% Tween (PBST) with 1% BSA for 1 hour at RT. After washing of the wells with PBST, different concentrations of anti-CD47 antibodies were added to the well and incubated for 1 at RT. For detection of the binding antibodies, the HRP conjugated secondary antibodies against human Fc (Jackson Immuno Research) were added followed by the addition of fluorogenic substrates (Roche). Between all incubation steps, the wells of the plate were washed with PBST three times. Fluorescence was measured in a TECAN Spectrafluor plate reader.

[12] = molecular target: T1, recombinant human CD47-Fc fusion …; assay: competition ELISA: blocks SIRPα-His binding to coated CD47-Fc
Procedure: Recombinant CD47-Fc fusion protein (Acrobiosystems) was coated at 1 ug/ml in PBS onto microtiter plates for 16 hours at 4° C. […] Plates were subsequently washed three times and incubated with an HRP-conjugated anti-His secondary antibody for 1 h at RT.

[13] = molecular target: T5, CD47 (form not stated); assay: Biacore
[14] = molecular target: T5, CD47 (form not stated); assay: Biacore (SPR); format not stated
[15] = molecular target: T2, human CD47 on Raji cells; assay: flow cytometry on Raji cells, MFI
[16] = molecular target: T4, Tag1-CD47 (Cisbio HTRF kit); assay: HTRF CD47-SIRPa binding assay (ratio 665 nm / 615 nm), blocked ligand Tag2-SIRPa
Procedure: as §2

[17] = molecular target: T7, human CD47-ECD (human, UniProt Q08722 19-139, limits assumed, N-terminal pyroglutamate (seen in the crystal structure)); assay: ELISA on recombinant CD47-ECD; recombinant CD47-ECD
T7 construct: extracellular domain; also called recombinant CD47-ECD; CD47 ECD protein

[18] = molecular target: T2, human CD47 on Raji cells; assay: flow cytometry on Raji cells; CD47-bearing Raji cells
[19] = molecular target: T5, CD47 (form not stated); assay: CD47-SIRPα blocking assay; format not stated; blocking of CD47 binding to SIRPα

IgG (antibody)
percent of cells in the binding gate [1]: 0.079% | percent of cells in the binding gate [2]: 0.018%

B1: CD47 antibody 1F8 (antibody, human IgG1, V domains shown)
VH: KVQLVESGGGLVKPGGSLRLSCAASGFTFSNAWMNWVRQAPGKGLEWVGRIKRKTDGETTDYAAPVKGRFSISRDDSKNTLYLQMNSLKTEDTAVYYCAGSNRAFDIWGQGTMVTVSA
VL: DIVMTQSPDSLAVSLGERATINCKSSQSVLYSSNNRNYLAWYQQKPGQPPKLLINQASTRASGVPDRFSGSGSGTEFTLIISSLHAEDVAIYYCQQYYTPPLAFGGGTKLEIK
percent of cells in the binding gate [1]: 0.065% | percent of cells in the binding gate [2]: 0.076% | IC50 (read off the curve) [3]: ~0.3 µg/mL | EC50 (read off the curve) [4]: ~0.2 µg/mL | EC50 (read off the curve) [5]: ~0.009 µg/mL | IC50 [6]: 1.6 nM | percent of CD61+ platelets in the binding gate [7]: 0.77% | EC50 [8]: 2.95 nM | Kd [9]: 2.8 nM | koff [9]: 0.00104 s⁻¹ | EC50 [10]: 0.038 nM | EC50 (read off the curve) [11]: ~0.006 µg/mL | IC50 [12]: 0.78 nM | kon [13]: 375000 M⁻¹ s⁻¹

B2: CD47 antibody 13H3 (antibody, V domains shown)
VH: KVQLVESGGGLVKPGGSLRLSCAASGLTFERAWMNWVRQAPGKGLEWVGRIKRKTDGETTDYAAPVKGRFSISRDDSKNTLYLQMNSLKTEDTAVYYCAGSNRAFDIWGQGTMVTVSA
VL: DIVMTQSPDSLAVSLGERATINCKSSQSVLYAGNNRNYLAWYQQKPGQPPKLLINQASTRASGVPDRFSGSGSGTEFTLIISSLQAEDVAIYYCQQYYTPPLAFGGGTKLEIK
Kd [14]: 7.81 nM | koff [14]: 0.00282 s⁻¹ | kon [14]: 361000 M⁻¹ s⁻¹ | EC50 [8]: 1.06 nM | EC50 [10]: 0.045 nM | IC50 [12]: 0.2 nM | EC50 [15]: 1.07 nM | Kd [13]: 0.46 nM | koff [13]: 0.000247 s⁻¹ | kon [13]: 533000 M⁻¹ s⁻¹ | IC50 [16]: 0.36 nM

B3: CD47 antibody 34C5 (antibody, V domains shown)
VH: QVQLVQSGAEVKKPGSSVKVSCKASGYTFSSYYMHWVRQAPGQGLEWMGEINPNNARINFNEKFKTRVTLTVDKSTSTAYMELSSLRSEDTAVYYCTRGYYRYGAWFGYWGQGTLVTVSS
VL: DIQMTQSPSSLSASVGDRVTITCRASQDISDYLNWYQQKPGKAPKLLIYYISRLHSGVPSRFSGSGSGTDYTLTISSLQPEDFATYYCQQGHTLPWTFGGGTKVEIK
EC50 [17]: 0.27 nM | EC50 [18]: 0.83 nM | EC50 [19]: 0.3 nM
